According to the supplement of paper PMC9942255:
Where “and” joins values, the source holds several entries; their conditions need not be identical. Equal values may be shown once.

Tested on: Bacillus subtilis DB104 (SP-AmyQ fusion secretion)
Assay: AmyQ secretion efficiency, weighted average sort bin (1 = best secretion, 10 = worst) (bin number (weighted average, 1-10)); higher = lower secretion efficiency
Procedure, shortened: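 In this assay, the secretion score is defined as the average bin number weighted by read frequency, normalised to beads per bin, with low-abundance sequences not counted. B. subtilis DB104 cells expressing mature AmyQ behind designed signal peptides (amyE-integrated) were enclosed with fluorescein-starch in ~65 nL alginate beads at about 0.3 cells per bead. Beads grew about 13 h at room temperature, were stained with nile red, and occupied beads went into 10 equally populated green/red fluorescence ratio bins by large-particle flow cytometry, whose amplicons were Illumina-sequenced.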

Sequence	AmyQ secretion efficiency
MKWMCSICCAAVLLAGESAQAEAV	3.16
MKRIRIPMTLALGAALTIAPLSFASPEEN	8.17
MKKGIIRFLLVSFVLFFALSTGITGVQSAPA	4.46
MLKKKWMVGLLAGCLAAGGFSYNCFATEN	3.91
MLKKKWMLMVGLLAGCLAAGGFSYNAFATEN	4.46
MKKAFLVFLSVVLVTTVFLVKQQESVCQAKQL	4.58
MKRLLSTLLIGIMLLITTILVSTLTFAPSAFAKQD	1.3
MRPVFPLILSAVLFLSCFFGARQTEASHSKR	2.35
MFLFQVSHAIIISVMLSFVIAVFHTIHASELTP	6.77
MPYLKRVLLLLVTGLFMSLFAVTATRSAQTG	3.54
MNKPTKLFILLALAALMFAAAAGGAGTIHAQQP	1.87
MKKGIIRKTLVSFVLFFALSTGITGVQAAPA	2
MKKIGLLFMLCLAALFTIGFPAQQADAAPR	1.25
MKNLTKTSLLLAGLCTAAQMVFVTHASAEES	3.46
MLCVMMLLFSAIASFPVSGQAKDQ	5.05
MRKTIFAFLTGLMMFFGTITAASASPD	1.98
MKKRFSLIMMTGLLFGLTSPAFAAPK	1.77
MKQGKFVFLILLLMLTLVVAPKEKAEAASS	1.74
MKKKVKIAGVLTVAAAAMTAKMYATAKGN	6.8
MKRFLIGAGVAAVILSGWTIADHQTHSQEM	5.66
MKLAKRVSALTPSTTLAITGFVGSTTFTAPTAKAKEL	6.19
MKSKWMSGLLLVAVGFSFTQVMNHAGET	5.68
MHLIRAAGAVCLAVVLIAGCRFNEDQHQAENENT	5.95
MHLIRAAGAVCLAVVLIAGCRFNEDQHQAEHENT	3.89
MRKNRILALFVLSLGLLSFMVTPVSAKRK	2.57
MKKWIYVVLVLSIAGIGGFSVHDASS	7.82

Sequence	AmyQ secretion efficiency
MRNLTKTSLLLAGLCTAAQSEFVTHASAEES	4.61
MHLIRAAGAVCLAVVLIAGCRFNEDQHQAEEENT	4.77
MKKVLMAFIICLSLILSAKAESV	4.24
MIAYFGKCLLLVTIMFLGVLFGMFATQQANHG	6.56
MRKSLITLGLASVISIIVFLIAFTSKTASAETL	2.48
MNKKYFVLIVCIIFTSALFPTFSSVTAAQR	1.45
MRKRKKKSMLTVMIASLFIFSSQALAVQY	6.79
MKKIMSAFVGMVLLTIFCVSTLTFSPQASAAYD	4.76
MRGKSAVLLSLIMLIAGFLIHFSFQM	6.42
MKWMCSICCAAVLLAGGAIQAEAV	2.58
MKTKTLFIFSAILTLSIFASTITLSAFAPNETFAQTA	3.01
MRFTKVVGFLSVLGVFPLTAQAEKA	5.6
MKKKKMLSMLTVMIASLFIFSSQALAVQY	3.15
MKKQIITATTAVVLGSTLFAGAKSAQSI	3.92
MSPVFPLILSAVLFLSCFFGARQTEASASKR	2.21
MKKKQVMLALTAAAGLGLTALHSAPASKAAPL	4.06
MKKVLMAFIICLSLILSVLAAPPSGIKAESV	3.36
MKKAKRKRRKAAVGLFTFGGVQQASAKEL	8.05
MKVPKTMLLSTAAGLLLSLTATSESAHYV	6.28
MKKVLMAFIICLSLILSVLAAPPSGAKAAED	3.24
MKSLPYTIALLFCGLIIVSMAAKGDED	8.1
MTKLKMLSMLTVMIASLFIFSSQALLVQY	6.07
MNIKKFAKQATVLTFTTALLAGGATQAFAKET	3.3
MKKRLIAPMLLSAASLAFFAMSGSFQAAAY	7.38
MKKTIMSFVAVAALSTTAFGAHASAADD	2.13
MLKKKWMVGLLAGCLAAGGFSYNGFATEN	6.08

Sequence	AmyQ secretion efficiency
MKKRRKSFVAVAALSTTAFGAHASAKEI	6.63
MLKKKWMVGLLAGCLAAGGFSYNHFATEN	6.62
MPYLKRVLLLLVTGLFMSLFAVTATASAQRK	2.03
MIAYFGKCLLLVTIMFLGVLGMQQANHG	5.4
MKKAAAVLLSLGLVFGFSYGAGHVVPTAAEAKTK	4.57
MTLWMTSTLLVVLFTIVTFGLVSPPAALMADKP	5.58
MKKIVSILFMFGLVMGFSSFFPSTVFAADK	3.12
MKRKKLCLWFTVFSLFLVLLPGKALGAVD	4.65
MRGKSAVLLSLIMLIAGFLISFHFQM	7.78
MKKLLAAGIIGLLTVSIASPSFYAEK	7.71
MNKPTKLRRKKKRAAGMTAAAAGGAGTIHAQQP	7.88
MKQGKFSVFLILLLMLTLVVAPKEKAEAAEE	2.62
MRRKKKKVVSALSISALALSVSGVASAHEI	3.9
MFMLTMNNMAIIIAIIAAVIVIAALITFNVRNASPG	6.62
MRPVFPGKGQYVLFLSCFFGARQTEASASKR	6.9
MFKKHTISLLIIFLLASAVLAKPIEAHTK	2.17
MLCVMMLLFSAIASFPVSAQLKDQ	6.33
MGRIKTKITILLVLLLLLAGPYMYIN	7.19
MPIKKKVMMCLAVTLVFGSMSSGGFKE	5.66
MKKRLIAPMFSSLLSAASLAFFAMSGSAQAAAY	3.7
MSLITFSLIITSAIIIAIIAAVIVIAALITFNVRNASPG	7.04
MGSSILLSSLAISALSLGLLVSAPTASFAAES	3.62
MRPVFPLILSAVLFLSCFFGARQTEASVSKR	2.77
MSMMSKLSLGVASAALGLALVGGGTWAAFN	5.67
MKKRFSLIMMFILLFMLMSPAFAAEK	3.79
MFNRLFRVCFLAALIMAFTLPNSVYLQKP	6.77

Sequence	AmyQ secretion efficiency
MSMWMITIAMLILAGIALFVFISPLKSHKT	7.42
MNKKYSSKQGCRIFTSALFPTFSSVTAAQG	4.96
MPYLKRVLLLLVTGLFMSLFRKKATASAQTG	7.42
MFNRLFRRCYTSTLIMAFTLPNSVYAQKP	5.72
MKRFKKKKSFLSIIVAYPIQTNASPM	5.88
MAIIIAIIAAVIVIAALITFNVRNQSPG	9.31
MIAYFGKCLLLVTIMFLGVLFGMQQYNHG	6.5
MLCVMMLLFSAIASFPVSAQDKDQ	6.19
MMSLLAAGIIGLLTVSIASPSFAAEK	5.23
MKRIRIPMTLALGAALTIAPLSFSSAEEN	4.73
MKKMLGKSRYGAGILVFFAVVVKDVFAAGL	4.68
MRKRTKTSLLLAGLCTAAQMVFVTHASAEES	3.51
MIAYFGKCRKRRKRMFLGVLFGMQQANHG	7.55
MNLFLIAPMLLSAASLAFFAMSGSAQAAAY	5.75
MKRLLVSLRVWMVFLMNWVTPDRKTAASAVY	6.03
MKKCLLFLTTIALILSGSTNAFAKNT	1.7
MLKKIALTLCPAIVGSLLFFTRKKASAHVS	7.46
MKKWLIIAVSLAIAIVLFMYTKGEAKTAGM	4.28
MLKRTSFVSSQGQGSRTLLSILLPSGQAHAQSA	7.6
MTMLRKIIGWILLLCIIPLFAFTVIDSGKEV	6.22
MKKWIYGGQTGKIAGIGGFSVHAASS	6.97
MKKVMLATALFLGLTFTTFAPAGANAADL	2.89
MAIIIAIIAAVIVIAALITFTSNVRNASPG	7.45
MNLRKIRKKRALSLGMLVSAAPVLATSS	7.46
MKKLVLCVSILAVILRKKALTQLS	7.41
MRKKKRKLLLATSALTFSLSLVLPLDGHAKAQEV	2.13

Sequence	AmyQ secretion efficiency
MKIRKILLSSALSFGMLISAVPALNAGT	6.27
MKKIWIGMLAAAVLLLMVPKVSLRDAA	4.91
MSKWLIIAVSLAIAIVLFMYTKGEAKAAGM	7.49
MKLKSKLRKKCRRRSTVFVATTIANAPTH	7.48
MTKKGWQLPLVCVLLISGWLAPAASASAQTT	1.79
MRPVFPLILSAVLFLSCFFGARQTEASDSKR	2.12
MKSKGSIMACLILFSFTITTFINTETISAFSR	3.97
MKLSVKRGTTLTVAAAAMTAKMYATAKGN	7.06
MKRIRIPMTLALGAALTIAPLSFGSAEEN	4.51
MPIKKKVMMCLAVTLVFGSMSFPTLTNWGGFKE	7.59
MKKRRKKLLAAGIIGLLTVSIASPSFAAEK	3.36
MKVLLSALLLLLFAFEPSASMKKL	6.8
MLKKVKRAAFILVGSTLGAFSFSSDASAKHV	1.33
MKLKKRVSMFLVALTMCGGLFVTPAKAVPR	1.68
MLKKIALTLCPAIVGSLLFFTAPASFHVS	7.41
MTKLKMLSMLTVMIASLFIFSSQCLAVQY	2.27
MRNLTKTSLLLAGLCTAAIQMVFVTHASAEES	3.32 and 3.1
MKSKGSIMACLILFSFTITTFINTETLSAFSN	6.34
MHLIRAAGAVCLAVVLIAGCRKNSVQHQAEGENT	5.67
MAIIIAIIAAVIVIAALITFEDDEDDDRNASPG	6.7
MTMLRKIIGWILLLCIIDDEAFTVIASGKEV	5.2
MKTLRTLCVLMILSGVIFFGLKDIDAKDI	6.44
MMKLLAAGIIGLLTVSIASPSFAAEK	2.05
